Experimental data reported in US20250296984A1, “THERAPEUTIC AND DIAGNOSTIC AGENTS AND USES THEREOF” (priority 2022, published 2025).

Legend:
Assay in all cases: HuProt Human Proteome Microarray, off-target human proteins
Type in all cases: binding
Set-up in all cases: key to Z Score: Z = (F635 − mean F635 of all spots) / SD; average of duplicate spots
[1] = biological target: T1, human proteins on HuProt Human Proteome Microarray (Homo sapiens, UniProt Q13895); details: Protein: BYSL
T1 construct: purchased CDI Labs (HuProt); host or cells: yeast S. cerevisiae
T1 sequence (Q13895 1-437): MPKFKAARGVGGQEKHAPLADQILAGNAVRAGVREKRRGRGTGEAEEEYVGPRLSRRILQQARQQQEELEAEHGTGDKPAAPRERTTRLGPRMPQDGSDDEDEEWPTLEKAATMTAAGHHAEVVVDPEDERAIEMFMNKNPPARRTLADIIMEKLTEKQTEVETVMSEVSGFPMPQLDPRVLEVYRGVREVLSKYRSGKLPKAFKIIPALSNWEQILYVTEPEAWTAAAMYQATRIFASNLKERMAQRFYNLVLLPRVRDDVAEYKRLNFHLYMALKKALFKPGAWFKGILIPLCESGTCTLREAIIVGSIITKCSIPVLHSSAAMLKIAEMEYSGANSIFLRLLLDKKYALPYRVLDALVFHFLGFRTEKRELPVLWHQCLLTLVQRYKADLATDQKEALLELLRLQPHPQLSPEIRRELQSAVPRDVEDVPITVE
Excerpt: (§1) The HuProt™ Human Proteome Microarray provides the largest number of unique, full-length, individually purified human proteins on a single microscope slide. It provides >21,000 unique human proteins, isoform variants, and protein fragments—covering 16,794 unique genes. This includes 15,889 of the 19,613 canonical human proteins described in the Human Protein Atlas, with broad coverage across protein subclasses. This allows thousands of interactions to be profiled in a high-throughput manner. The full-length recombinant proteins are expressed in the yeast S. cerevisiae, purified, and printed on glass slides in duplicate along with a set of control proteins (GST, BSA, histones, IgG, etc.). The full list of the different proteins included in the HuProt™ Human Proteome Microarray as used in this Example is provided as “List B” in the Research Disclosures publication (ISSN 0374-4353, Questel Ireland Ltd) with database numbers 707018, 707019 and 707020, each entitled “Large scale protein arrange target protein identities” and each digitally published on 27 Jan. 2023, the contents of each of which are incorporated herein by reference in their entirety, fo the purposes of the disclosure of the proteins defined by “List B”. “List B” begins in Research Disclosures publication 707018, is continued in Research Disclosures publication 707019, and concludes Research Disclosures publications 707020, and so the three publications are to be read consecutively as a single disclosure of the “List B” proteins. The HuProt™ microarray is not restricted to a particular type of surface coating, although the default is glass coated with ultrathin nitrocellulose film for the non-covalent, yet irreversible, capture of active proteins to the surface.
(§2) Samples of humanised 7B1F3 and mouse 7B1F3 antibodies were analysed for binding specificities on HuProt™ human proteome arrays. A peptide with the sequence TDVLNQSKPVTL (“Peptide 3”) was added to the arrays at 0.1 mg/ml as a control.
(§3) After blocking, the arrays were probed with the antibody samples (0.1 μg/ml) at room temperature for 1 hour. Then the arrays were washed with TBST for 10 min×3 and probed with Alexa647-anti-human IgG Fc or Alexa647-anti-mouse IgG secondary antibodies under conditions optimized by CDI Labs for signal detection.
(§4) • Non-specific hits that directly bind to the secondary antibodies were eliminated from the analysis of the samples. • CDI software was used to quantify the specificity of each individual sample to specific proteins on the array based on Z Scores. • Z score is the average Z score of the duplicate spots of a given protein (each protein is printed in duplicate on a HuProt™ array). The Z score of each spot on a given array is calculated according to the algorithm below:
(§5) Z=[F635−F635(avg)]/F635(std) • F635(avg) and F635(std) are the average and standard deviation of the F635 values of all spots on the array, respectively. • S score is the difference of the Z Scores of a given protein and the one ranked next to it. If the S score of the top hit is >3, the antibody is considered to be highly specific for the top hit. • F635 is the average foreground signal intensity of 2 replicate spots of a given protein in the detection channel (635 nm). • B635 is the average background signal intensity of 2 replicate spots of a given protein in the detection channel (635 nm).

[2] = biological target: T2, human proteins on HuProt Human Proteome Microarray (Homo sapiens, UniProt Q14847); details: Protein: LASP1
T2 construct: purchased CDI Labs (HuProt); host or cells: yeast S. cerevisiae
T2 sequence (Q14847 1-261): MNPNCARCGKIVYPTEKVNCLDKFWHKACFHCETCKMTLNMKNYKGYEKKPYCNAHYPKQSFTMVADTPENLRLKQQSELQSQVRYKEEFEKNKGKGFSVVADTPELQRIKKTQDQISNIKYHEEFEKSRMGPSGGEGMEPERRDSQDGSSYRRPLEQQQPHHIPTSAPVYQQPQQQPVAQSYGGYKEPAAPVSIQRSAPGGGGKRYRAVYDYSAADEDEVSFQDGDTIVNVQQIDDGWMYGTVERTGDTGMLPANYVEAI
Excerpt: as §1, §2, §3, §4, §5

[3] = biological target: T3, human proteins on HuProt Human Proteome Microarray (Homo sapiens, UniProt Q9UK22); details: Protein: FBXO2
T3 construct: purchased CDI Labs (HuProt); host or cells: yeast S. cerevisiae
T3 sequence (Q9UK22 1-296): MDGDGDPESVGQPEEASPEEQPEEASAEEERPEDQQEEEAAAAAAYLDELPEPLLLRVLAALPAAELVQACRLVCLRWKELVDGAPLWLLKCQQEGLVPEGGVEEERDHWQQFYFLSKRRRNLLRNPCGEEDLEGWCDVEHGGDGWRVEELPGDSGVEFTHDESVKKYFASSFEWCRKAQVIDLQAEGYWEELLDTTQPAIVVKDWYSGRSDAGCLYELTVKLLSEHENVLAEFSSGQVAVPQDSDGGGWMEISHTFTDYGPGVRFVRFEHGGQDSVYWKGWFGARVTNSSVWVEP
Excerpt: as §1, §2, §3, §4, §5

B1: 7B1F3: mouse IgG1 kappa antibody against US28 ECD1 Peptide-N; VH SEQ ID NO: 211, VL SEQ ID NO: 213 (antibody, V domains shown)
VH: EVQLQQSGAELAKPGASVKMSCKASGYTFTNYWMHWVKQRPGQGLEWIGYVNPRTGYTEYNQKFKDKATLTADKSSRTAYMQLSSLTSEDSAVYSCARILNGTGFAYWGQGTLVTVSA
VL: DIVLTQSPSSLTVSVGEKFTMSCKSSQSLLYSSNQKNYLAWYQQKPGQSPKLLIYWASTRESGVPDRFTGSGSGTDFTLAISSVKPEDLAIYYCQQYYSFPLTFGAGTKLEIK
modifications: Mature form of VH sequence of 7B1F3, without the leader sequence; Mature form of VL sequence of 7B1F3, without the leader sequence
Question: B1 was tested. Which F635 [1] did it give?
Answer: 2210

Question: What about the “Z Score” value [1] of the same molecule?
Answer: 6.3

Question: What about the F635 [2] of the same molecule?
Answer: 3681

Question: And the “Z Score” value [2]?
Answer: 10.575

Question: And the F635 [3]?
Answer: 4683

Question: And the “Z Score” value [3]?
Answer: 13.486
